3 molecules from article PMC7921410, “Structure of mammalian Mediator complex reveals Tail module architecture and interaction with a conserved core” (Nature Communications, 2021) can be followed below.

B1: MED27 (natural protein, mouse (Mus musculus; endogenous in CH12), UniProt Q9DB40 1-311, looked up)
chain: MADVLSVGVNLEAFSQAISAIQALRSSVSRVFDCLKDGMRNKETLEGREKAFIANFQDNLHSVNRDLNELERLSNLVGKPSENHPLHNSGLLSLDPVQDKTPLYSQLLQAYKWSNKLQYHAGLASGLLNQQSLKRSANQMGVSAKRRPKAQPTTLVLPPQYVDDVISRIDRMFPEMSIHLSRPNGTSAMLLVTLGKVLKVIVVMRSLFIDRTIVKGYNESVYTEDGKLDIWSKSSYQVFQKVTDHATTALLHYQLPQMPDVVVRSFMTWLRSYIKLFQAPCQRCGKFLQDGLPPTWRDFRTLEAFHDTCRQ
notes: MED27, Mus musculus, endogenous upper Tail subunit of Mediator; source: endogenous, CH12 mouse B lymphoma nuclear extract; immunopurified as part of Mediator (FLAG M2 agarose, FLAG peptide elution)
B3: MED17 (natural protein, mouse (Mus musculus; endogenous in CH12), UniProt Q8VCD5 1-649, looked up)
chain: MSGVRAVRISIESACEKQVQEVGLDGTETYLQPLSMSQNLARLAQRIDFSQGSGSEEEEAAGPDGDAPDWGGAGADQDDEEGLVKFQPSLWPWDSVRNNLRSALTEMCVLYDVLSIVRDKKFMTLDPVSQDALPPKQSPQTLQLISKKKSLAGAAQILLKGAERLTKSVAENQENKLQRDFNSELLRLRQHWKLRKVGDKILGDLSYRSAGSLFPHHGTFEVIKNTDIDLDKKIPEDYCPLDVQIPSDLEGSAYIKVSIQKQAPDIGDLGTVNLFKRPLPKSKPGSPHWQTKLEAAQNVLLCKEIFAQLSREAVQIKSQIPHIVVKNQIISQPFPSLQLSISLCHSSDDKKSQKCAAEKPGQEDHLYVLEHNLHLLIREFHKQTLSSIVMPHPASAPFGHKRMRLSGPQAFDKNEINSIQSTEGLLEKIIKQAKHIFLRSRTAATIDSLASRIEDPQIQAHWSNINDVYESSVKVLITSQGYEQICKSIQLQLNIGVEQVRVVHRDGRVIMLSHQEQELQDFLLSQMSQHQVHAVQQLAKVMGWQVLSFSNHVGLGPIESIGNASAITVASPSGDYAISVRNGPESGSKIMVQFPRNQCKDLPKSDVLQDSKWSHLRGPFKEVQWNKMEGRNFVYKMELLMSALSPCLL
notes: MED17, Mus musculus, endogenous Head module scaffold subunit of Mediator; source: endogenous, CH12 mouse B lymphoma nuclear extract; immunopurified as part of Mediator (FLAG M2 agarose, FLAG peptide elution)

Holding throughout (assay): cryo-EM structure; endogenous mouse Mediator immunopurified from CH12 nuclear extract through 3×FLAG-MED19 or 3×FLAG-MED25; eluted in 50 mM HEPES pH 7.9, 100 mM KCl, 5% glycerol, 1 mM EDTA, 0.005% NP-40; map at 4.0 Å overall, focused refinement of the MED1 and knob/hook ends (6-10 Å)
Common to all, as to details: both partners purified

One assay concerns the target T1, MED16 (mouse (Mus musculus; endogenous in CH12), UniProt Q6PGF3 1-828).
T1 construct: MED16, Mus musculus, endogenous lower Tail subunit of Mediator; source: endogenous, CH12 mouse B lymphoma nuclear extract; immunopurified as part of Mediator (FLAG M2 agarose, FLAG peptide elution)
T1 sequence (looked up): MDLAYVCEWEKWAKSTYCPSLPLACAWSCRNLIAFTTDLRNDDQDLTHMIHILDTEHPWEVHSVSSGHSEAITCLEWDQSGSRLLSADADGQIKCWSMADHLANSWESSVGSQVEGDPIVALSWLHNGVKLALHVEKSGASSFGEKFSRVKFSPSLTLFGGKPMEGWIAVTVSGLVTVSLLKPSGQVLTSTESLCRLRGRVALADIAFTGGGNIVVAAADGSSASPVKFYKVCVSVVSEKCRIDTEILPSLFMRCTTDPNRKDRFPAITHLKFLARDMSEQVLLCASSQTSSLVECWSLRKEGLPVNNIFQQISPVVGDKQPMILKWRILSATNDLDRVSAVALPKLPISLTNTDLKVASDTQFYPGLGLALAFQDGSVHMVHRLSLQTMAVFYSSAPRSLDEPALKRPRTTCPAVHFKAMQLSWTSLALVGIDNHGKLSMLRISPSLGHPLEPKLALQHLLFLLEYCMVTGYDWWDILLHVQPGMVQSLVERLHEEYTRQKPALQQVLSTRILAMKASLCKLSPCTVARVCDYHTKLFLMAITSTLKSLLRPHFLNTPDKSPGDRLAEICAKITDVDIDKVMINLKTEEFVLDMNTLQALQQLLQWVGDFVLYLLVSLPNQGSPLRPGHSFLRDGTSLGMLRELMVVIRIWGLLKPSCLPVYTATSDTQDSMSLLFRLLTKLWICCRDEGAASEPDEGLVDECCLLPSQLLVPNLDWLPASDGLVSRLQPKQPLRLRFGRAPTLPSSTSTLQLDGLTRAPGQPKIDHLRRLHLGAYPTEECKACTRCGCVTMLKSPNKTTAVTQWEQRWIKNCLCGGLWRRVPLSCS

Another assay has as its target T2, MED15 (mouse (Mus musculus; endogenous in CH12), UniProt Q924H2 1-789).
T2 construct: MED15, Mus musculus, endogenous lower Tail subunit of Mediator; only the C-terminal portion (from residue 620) is seen in the map; source: endogenous, CH12 mouse B lymphoma nuclear extract; immunopurified as part of Mediator (FLAG M2 agarose, FLAG peptide elution)
T2 sequence (looked up): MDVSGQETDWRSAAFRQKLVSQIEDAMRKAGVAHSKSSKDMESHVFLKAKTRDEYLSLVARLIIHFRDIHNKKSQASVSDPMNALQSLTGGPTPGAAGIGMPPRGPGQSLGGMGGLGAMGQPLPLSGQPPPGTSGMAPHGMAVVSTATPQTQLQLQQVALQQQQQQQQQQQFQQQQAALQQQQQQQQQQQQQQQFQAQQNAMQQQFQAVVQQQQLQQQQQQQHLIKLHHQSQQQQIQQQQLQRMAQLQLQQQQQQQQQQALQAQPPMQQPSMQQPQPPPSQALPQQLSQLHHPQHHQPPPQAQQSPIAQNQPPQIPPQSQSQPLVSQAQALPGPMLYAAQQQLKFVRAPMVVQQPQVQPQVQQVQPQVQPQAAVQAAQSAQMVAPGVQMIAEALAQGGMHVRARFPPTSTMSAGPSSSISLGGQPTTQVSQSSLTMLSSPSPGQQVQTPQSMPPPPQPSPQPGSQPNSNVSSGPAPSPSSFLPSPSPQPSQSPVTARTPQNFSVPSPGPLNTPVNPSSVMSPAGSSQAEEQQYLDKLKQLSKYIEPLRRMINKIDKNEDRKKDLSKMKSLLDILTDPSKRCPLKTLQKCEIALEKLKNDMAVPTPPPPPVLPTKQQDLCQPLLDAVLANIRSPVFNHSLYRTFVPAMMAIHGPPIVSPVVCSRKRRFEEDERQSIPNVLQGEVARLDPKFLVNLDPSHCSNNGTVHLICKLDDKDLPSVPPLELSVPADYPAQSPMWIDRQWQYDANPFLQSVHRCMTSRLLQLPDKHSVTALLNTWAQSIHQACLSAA

The target of the assay “MED17” is B3.
For the assay “MED27”, the target named is B1.

Take B1: the binding result with MED16, with MED15 and in the assay with MED17 was “binds” throughout.

B2: MED29 (natural protein, mouse (Mus musculus; endogenous in CH12), UniProt Q9DB91 1-199, looked up)
chain: MAAPQPQAAAVSSASGVSGPGSAGGPGPQQQPQPTQLVGSAQSGLLQQQQQDFDPVQRYKMLIPQLKESLQTLMKVAAQNLIQNTNIDNGQKSSDAPLQRFDKCLEEFYALCDQLELCLRLAHECLSQSCDSAKHSPTLVPTATKPDAVQPDSLPYPQYLAVIKAQITCAKDIHTALLDCANKVTGKTTAPSTGPGGSL
notes: MED29, Mus musculus, endogenous upper Tail subunit of Mediator; source: endogenous, CH12 mouse B lymphoma nuclear extract; immunopurified as part of Mediator (FLAG M2 agarose, FLAG peptide elution)
Take B2: the binding result with MED16, with MED27 and with MED15 was “binds” throughout.
For B3, the binding result with MED15 is recorded as “binds”.
